Results on six substances are retold here after PMC11387410.

The target in assay [1] is LgBiT-BOK-TMD (transmembrane domain of BOK as NanoBiT fusion) (UniProt Q9UMX3). Description: split reporter (BiFC, NanoBiT); NanoBiT split luciferase in living HEK293FT cells; LgBiT-TMD and SmBiT-TMD plasmids transfected 1:1, 24 h; cells in Opti-MEM, 5 uM coelenterazine-h, luminescence 30 min after substrate; absolute RLU (Fig. 1C) or normalized to mTurquoise2 fluorescence and set relative to BAX-TMD/BAX-TMD = 1 (Fig. 1F, 6C).

For assay [2] the target is unchanged. In words: split reporter (BiFC, NanoBiT); NanoBiT split luciferase in living MCF-7 cells; transfected 24 h; luminescence relative to the positive control BAX-TMD/BAX-TMD.
Assay [3] deals with BAX-TMD (transmembrane domain of BAX) as NanoBiT fusion (UniProt Q07812). In words: split reporter (BiFC, NanoBiT); NanoBiT split luciferase in living HEK293FT cells; LgBiT-TMD and SmBiT-TMD plasmids transfected 1:1, 24 h; cells in Opti-MEM, 5 uM coelenterazine-h, luminescence 30 min after substrate; absolute RLU (Fig. 1C) or normalized to mTurquoise2 fluorescence and set relative to BAX-TMD/BAX-TMD = 1 (Fig. 1F, 6C).

Chain of UniProt Q9UMX3 (Q9UMX3 whole entry, the tested form may be a part): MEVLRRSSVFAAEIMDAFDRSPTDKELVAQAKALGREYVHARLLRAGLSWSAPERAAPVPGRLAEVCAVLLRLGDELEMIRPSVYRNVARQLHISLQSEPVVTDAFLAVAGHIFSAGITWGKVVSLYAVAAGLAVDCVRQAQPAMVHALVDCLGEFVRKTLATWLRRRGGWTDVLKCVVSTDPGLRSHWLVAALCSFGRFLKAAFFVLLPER

Turning to “SmBiT-BCL-2-TMD V226A I230A (from UniProt P10415 1-239) (domain or fragment)”, the relative normalized luminescence (BAX-TMD/BAX-TMD = 1) (relative to the positive control) in assay [1] is 0.21.
Substance “SmBiT-BCL-2-TMD (transmembrane domain of BCL-2 as NanoBiT fusion) (from UniProt P10415 1-239) (domain or fragment)” gave a normalized luminescence as percent of the positive control (BAX-TMD/BAX-TMD) (% of the positive control) in assay [2] of 30. In assay [1], this substance had a normalized luminescence as percent of the positive control (BAX-/BAX-TMD) (% of the positive control) of 46 and a relative normalized luminescence (BAX-TMD/BAX-TMD = 1) (relative to the positive control) of 0.47.
“SmBiT-BCL-2-TMD I230A (from UniProt P10415 1-239) (domain or fragment)”: in assay [1], the relative normalized luminescence (BAX-TMD/BAX-TMD = 1) (relative to the positive control) came out at 0.21.
As to “BAX-TMD (transmembrane domain of BAX) as NanoBiT fusion (from UniProt Q07812 1-192) (domain or fragment)”, the luminescence in assay [3] came out at 16600 RLU.
For the substance “SmBiT-BCL-2-TMD L223A V226A I230A (from UniProt P10415 1-239) (domain or fragment)”, in assay [1], the relative normalized luminescence (BAX-TMD/BAX-TMD = 1) (relative to the positive control) is 0.13.
On the same count and under the same terms, with “SmBiT-BCL-2-TMD L223A V226A (from UniProt P10415 1-239) (domain or fragment)” the figure was 0.21.
